Data as given in patent US20060073508A1.

Tests used:
[1] = biological target: Gi (endogenous G protein of the CHO cells); test: cell-based or functional assay
[2] = biological target: Gi/Go (endogenous G proteins of the CHO cells); test: cell-based or functional assay

Row | Binder | inhibition of adenylyl cyclase (epinephrine) [1] [% inhibition] | high affinity dissociation constant KH of epinephrine (competition with [3H]yohimbine, no GTP) [2] [nM] | percentage of receptors in the high-affinity state (% RH) [2] [%] | inhibition of adenylyl cyclase [1] [% inhibition] | stimulation of MAP kinase (fold increase over basal) [1]
1 | Del322-325 human alpha-2C adrenergic receptor, P18825 1-462 (receptor) MASPALAAALAVAAAAGPNASGAGERGSGGVANASGASWGPPRGQYSAGAVAGLAAVVGFLIVFTVVGNVLVVIAVLTSRALRAPQNLFLVSLASADILVATLVMPFSLANELMAYWYFGQVWCGVYLALDVLFCTSSIVHLCAISLDRYWSVTQAVEYNLKRTPRRVKATIVAVWLISAVISFPPLVSLYRQPDGAAYPQCGLNDETWYILSSCIGSFFAPCLIMGLVYARIYRVAKRRTRTLSEKRAPVGPDGASPTTENGLGAAAGAGENGHCAPPPADVEPDESSAAAERRRRRGALRRGGRRRAGAEGGAGGADGQGAAESGALTASRSPGPGGRLSRASSRSVEFFLSRRRRARSSVCRRKVAQAREKRFTFVLAVVMGVFVLCWFPFFFIYSLYGICREACQVPGPLFKFFFWIGYCNSSLNPVIYTVFNQDFRPSFKHILFRRRRRGFRQ | 10 | 7.3 | 31 | – | –
2 | polymorphic Lys251 human alpha-2A adrenergic receptor, P08913 16-465 (receptor) MGSLQPDAGNASWNGTEAPGGGARATPYSLQVTLTLVCLAGLLMLLTVFGNVLVIIAVFTSRALKAPQNLFLVSLASADILVATLVIPFSLANEVMGYWYFGKAWCEIYLALDVLFCTSSIVHLCAISLDRYWSITQAIEYNLKRTPRRIKAIIITVWVISAVISFPPLISIEKKGGGGGPQPAEPRCEINDQKWYVISSCIGSFFAPCLIMILVYVRIYQIAKRRTRVPPSRRGPDAVAAPPGGTERRPKGLGPERSAGPGGAEAEPLPTQLNGAPGEPAPAGPRDTDALDLEESSSSDHAERPPGPRRPERGPRGKGKARASQVKPGDSLPRRGPGATGIGTPAAGPGEERVGAAKASRWRGRQNREKRFTFVLAVVIGVFVVCWFPFFFTYTLTAVGCSVPRTLFKFFFWFGYCNSSLNPVIYTIFNHDFRRAFKKILCRGDRKRIV | – | – | – | 60 | 57

Results, then the binder that gave them:

Row | inhibition of adenylyl cyclase (epinephrine) [1] [% inhibition] | high affinity dissociation constant KH of epinephrine (competition with [3H]yohimbine, no GTP) [2] [nM] | percentage of receptors in the high-affinity state (% RH) [2] [%] | inhibition of adenylyl cyclase [1] [% inhibition] | stimulation of MAP kinase (fold increase over basal) [1] | Binder
3 | – | – | – | 46 | 15 | wild-type Asn251 human alpha-2A adrenergic receptor, P08913 16-465 (receptor) MGSLQPDAGNASWNGTEAPGGGARATPYSLQVTLTLVCLAGLLMLLTVFGNVLVIIAVFTSRALKAPQNLFLVSLASADILVATLVIPFSLANEVMGYWYFGKAWCEIYLALDVLFCTSSIVHLCAISLDRYWSITQAIEYNLKRTPRRIKAIIITVWVISAVISFPPLISIEKKGGGGGPQPAEPRCEINDQKWYVISSCIGSFFAPCLIMILVYVRIYQIAKRRTRVPPSRRGPDAVAAPPGGTERRPNGLGPERSAGPGGAEAEPLPTQLNGAPGEPAPAGPRDTDALDLEESSSSDHAERPPGPRRPERGPRGKGKARASQVKPGDSLPRRGPGATGIGTPAAGPGEERVGAAKASRWRGRQNREKRFTFVLAVVIGVFVVCWFPFFFTYTLTAVGCSVPRTLFKFFFWFGYCNSSLNPVIYTIFNHDFRRAFKKILCRGDRKRIV
4 | 73 | 3.7 | 42 | – | – | wild-type human alpha-2C adrenergic receptor, P18825 1-462 (receptor) MASPALAAALAVAAAAGPNASGAGERGSGGVANASGASWGPPRGQYSAGAVAGLAAVVGFLIVFTVVGNVLVVIAVLTSRALRAPQNLFLVSLASADILVATLVMPFSLANELMAYWYFGQVWCGVYLALDVLFCTSSIVHLCAISLDRYWSVTQAVEYNLKRTPRRVKATIVAVWLISAVISFPPLVSLYRQPDGAAYPQCGLNDETWYILSSCIGSFFAPCLIMGLVYARIYRVAKRRTRTLSEKRAPVGPDGASPTTENGLGAAAGAGENGHCAPPPADVEPDESSAAAERRRRRGALRRGGRRRAGAEGGAGGADGQGAGPGAAESGALTASRSPGPGGRLSRASSRSVEFFLSRRRRARSSVCRRKVAQAREKRFTFVLAVVMGVFVLCWFPFFFIYSLYGICREACQVPGPLFKFFFWIGYCNSSLNPVIYTVFNQDFRPSFKHILFRRRRRGFRQ
